Here are results for one molecule from patent US20210347908A1 (ELPISCIENCE SUZHOU BIOPHARMA, published 2021).

The target of test [1] is 6×His tagged human SIRPα v2 ECD recombinant protein (human). Nature of the test: SPR (Biacore). The method, then:
Anti-SIRPα chimeric antibodies were characterized for binding affinity against human SIRPα v1, human SIRPα v2 and C57BL/6 mouse SIRPα using Biacore (GE). Briefly the antibodies to be tested were captured to CM5 chip (GE) using Human Antibody Capture Kit (GE). The antigens of 6×His tagged human SIRPα v1, human SIRPα v2 and C57BL/6 mouse SIRPα ECD recombinant proteins were serially diluted for multiple doses and injected at 30 μl/min for 180 s. Buffer flow was maintained for dissociation of 400 s. 3 M MgCl₂ was used for chip regeneration. The association and dissociation curves were fit with 1:1 binding model, and the Ka/Kd/KD values for each antibody were calculated.
hu035.01, the first version of humanized 035, was characterized by FACS assay using CHOK1-human SIRPα v1-1B4 cells, ELISA assay using Fc tagged human SIRPα v2 ECD recombinant protein and SPR analysis using the antigen of 6×His tagged human SIRPα v2 ECD recombinant protein (refer to methods described in Example 3.4, Example 3.3 and Example 4.3). […] In particular, hu035.01 cannot be detected to bind with C57BL/6 mouse SIRPα ECD in ELISA assay possibly due to reduced binding activity (FIG. 5B).
In general terms: Surface plasmon resonance follows binding to a sensor surface in real time, without labels.

Test [2] concerns the target T1, 6×His tagged C57BL/6 mouse SIRPα ECD recombinant protein (mouse (C57BL/6), UniProt P97797 32-373).
T1 construct: extracellular domain; bought; also called mSIRPα (C57BL/6); mouse SIRPα (C57BL/6) ECD
T1 sequence: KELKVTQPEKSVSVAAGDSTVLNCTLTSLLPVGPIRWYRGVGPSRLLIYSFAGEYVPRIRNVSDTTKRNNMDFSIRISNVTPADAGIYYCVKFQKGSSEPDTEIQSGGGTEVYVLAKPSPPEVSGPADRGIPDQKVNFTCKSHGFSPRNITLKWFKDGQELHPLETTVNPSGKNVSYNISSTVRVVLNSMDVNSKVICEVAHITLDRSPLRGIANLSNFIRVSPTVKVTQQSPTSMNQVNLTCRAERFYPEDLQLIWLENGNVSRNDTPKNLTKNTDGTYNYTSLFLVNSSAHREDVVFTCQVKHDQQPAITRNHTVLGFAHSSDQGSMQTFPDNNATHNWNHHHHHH
Nature of the test: SPR (Biacore), antibody captured. In outline:
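Chimeric anti-SIRPα antibodies captured on CM5 via anti-human antibody kit; His-tagged SIRPα ECD proteins injected as dilution series at 30 μl/min for 180 s, dissociation 400 s, regeneration with 3 M MgCl₂. Ka, Kd and KD from 1:1 binding model fits.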

For orientation: Kd means a measure of binding affinity in units of concentration. Broadly, the koff is a measure of how fast the partners let go of each other. Broadly, the kon is the second-order rate constant of association.

6×His tagged human SIRPα v2 ECD recombinant protein (human), sequence (chain, as listed by the source): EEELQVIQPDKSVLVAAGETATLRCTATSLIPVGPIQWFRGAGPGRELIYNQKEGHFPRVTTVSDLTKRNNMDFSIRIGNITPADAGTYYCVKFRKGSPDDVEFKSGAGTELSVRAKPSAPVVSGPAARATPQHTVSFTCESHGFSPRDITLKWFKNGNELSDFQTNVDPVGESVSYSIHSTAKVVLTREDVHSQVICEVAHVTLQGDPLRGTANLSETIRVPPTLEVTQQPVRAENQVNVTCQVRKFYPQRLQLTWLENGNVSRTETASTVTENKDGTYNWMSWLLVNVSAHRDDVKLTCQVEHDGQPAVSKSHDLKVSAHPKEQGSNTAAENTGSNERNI

B1: chimeric antibody 035c (antibody, V domains shown)
VH: QIQLVQSGPELRKPGETVKISCKASGYSFTNYAMNWVKQAPGKVLKWMGFINTYTGEPTYADDFKGRFAFSLETSASTAYLQINNLKNEDTATYFCTRTRGYYDFDGGAFDYWGQGTSLTVSS
VL: DIVMTQSQKFMSTSIGDRVSVTCKASQNVGTHLAWYQQKPGQSPKALIFSASYRYIGVPDRFTGSGSGTDFTLTITNVQSEDLAEYFCQQYNTYPLTFGAGTKLELK
For B1, the Kd in test [1] amounted to 0.61 nM. For the same molecule, in test [2], the Kd turned out to be 5270 nM, the koff worked out at 0.0247 s⁻¹ and the kon came out at 4690 M⁻¹ s⁻¹.
